Reference: patent US20250109210A1 (ABSCI, published 2025)

Tests used:
TL1A [1] = target: T1, TL1A (UniProt O95150 72-251, limits assumed); test: selectivity ELISA: antibody pre-incubated with TL1A, inhibition of TL1A binding to plate-coated DcR3
T1 construct: also called TNFSF15
T1 sequence (looked up): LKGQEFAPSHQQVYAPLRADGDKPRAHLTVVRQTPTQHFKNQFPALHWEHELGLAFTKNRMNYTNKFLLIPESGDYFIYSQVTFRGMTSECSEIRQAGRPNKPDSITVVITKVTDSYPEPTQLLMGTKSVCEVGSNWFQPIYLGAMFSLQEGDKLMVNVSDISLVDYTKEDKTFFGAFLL

TL1A [2] = target: T1, TL1A; test: selectivity ELISA: antibody pre-incubated with TL1A, inhibition of TL1A binding to plate-coated DR3

IC50 (TL1A [1]): 3.6 µg/mL
IC50 (TL1A [2]): 6.3 µg/mL
B1: MK-7240 (antibody, V domains shown)
VH: QVQLVQSGAEVKKPGASVKVSCKASGFDIQDTYMHWVKQRPGQGLEWMGRIDPASGHTKYDPKFQVRVTITRDTSTSTVYLELSSLRSEDTAVYYCARSGGLPDVWGQGTTVTVSS
VL: EIVLTQSPGTLSLSPGERATLSCRASSSVSYMYWYQQKPGQAPRPLIYATSNLASGIPDRFSGSGSGTDFTLTISRLEPEDFAVYYCQQWEGNPRTFGGGTKLEIK
